Experimental data reported in US6806079.

Legend:
[1] = target: Rhesus-D antigen (human) (UniProt Q02161); experiment: phage bound to Rh-D positive red blood cells, eluted with citric acid, titred on ampicillin plates; titre prior to selection 1.0 × 10^8
[2] = target: bovine thyroglobulin (Sigma) (bovine) (UniProt P01267); experiment: phage ELISA, 200 µg/ml thyroglobulin coating
[3] = target: T1, turkey egg-white lysozyme (turkey, UniProt P00703 19-147); experiment: heading of the table of deduced sequences
T1 construct: also called turkey egg lysozyme; turkey lysozyme
T1 sequence (P00703 19-147 limits assumed): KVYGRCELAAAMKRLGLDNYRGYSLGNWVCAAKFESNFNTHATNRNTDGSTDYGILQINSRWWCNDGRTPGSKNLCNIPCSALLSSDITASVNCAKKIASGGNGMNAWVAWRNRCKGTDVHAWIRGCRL

bovine thyroglobulin (Sigma) (bovine), sequence (P01267 20-2769 limits assumed): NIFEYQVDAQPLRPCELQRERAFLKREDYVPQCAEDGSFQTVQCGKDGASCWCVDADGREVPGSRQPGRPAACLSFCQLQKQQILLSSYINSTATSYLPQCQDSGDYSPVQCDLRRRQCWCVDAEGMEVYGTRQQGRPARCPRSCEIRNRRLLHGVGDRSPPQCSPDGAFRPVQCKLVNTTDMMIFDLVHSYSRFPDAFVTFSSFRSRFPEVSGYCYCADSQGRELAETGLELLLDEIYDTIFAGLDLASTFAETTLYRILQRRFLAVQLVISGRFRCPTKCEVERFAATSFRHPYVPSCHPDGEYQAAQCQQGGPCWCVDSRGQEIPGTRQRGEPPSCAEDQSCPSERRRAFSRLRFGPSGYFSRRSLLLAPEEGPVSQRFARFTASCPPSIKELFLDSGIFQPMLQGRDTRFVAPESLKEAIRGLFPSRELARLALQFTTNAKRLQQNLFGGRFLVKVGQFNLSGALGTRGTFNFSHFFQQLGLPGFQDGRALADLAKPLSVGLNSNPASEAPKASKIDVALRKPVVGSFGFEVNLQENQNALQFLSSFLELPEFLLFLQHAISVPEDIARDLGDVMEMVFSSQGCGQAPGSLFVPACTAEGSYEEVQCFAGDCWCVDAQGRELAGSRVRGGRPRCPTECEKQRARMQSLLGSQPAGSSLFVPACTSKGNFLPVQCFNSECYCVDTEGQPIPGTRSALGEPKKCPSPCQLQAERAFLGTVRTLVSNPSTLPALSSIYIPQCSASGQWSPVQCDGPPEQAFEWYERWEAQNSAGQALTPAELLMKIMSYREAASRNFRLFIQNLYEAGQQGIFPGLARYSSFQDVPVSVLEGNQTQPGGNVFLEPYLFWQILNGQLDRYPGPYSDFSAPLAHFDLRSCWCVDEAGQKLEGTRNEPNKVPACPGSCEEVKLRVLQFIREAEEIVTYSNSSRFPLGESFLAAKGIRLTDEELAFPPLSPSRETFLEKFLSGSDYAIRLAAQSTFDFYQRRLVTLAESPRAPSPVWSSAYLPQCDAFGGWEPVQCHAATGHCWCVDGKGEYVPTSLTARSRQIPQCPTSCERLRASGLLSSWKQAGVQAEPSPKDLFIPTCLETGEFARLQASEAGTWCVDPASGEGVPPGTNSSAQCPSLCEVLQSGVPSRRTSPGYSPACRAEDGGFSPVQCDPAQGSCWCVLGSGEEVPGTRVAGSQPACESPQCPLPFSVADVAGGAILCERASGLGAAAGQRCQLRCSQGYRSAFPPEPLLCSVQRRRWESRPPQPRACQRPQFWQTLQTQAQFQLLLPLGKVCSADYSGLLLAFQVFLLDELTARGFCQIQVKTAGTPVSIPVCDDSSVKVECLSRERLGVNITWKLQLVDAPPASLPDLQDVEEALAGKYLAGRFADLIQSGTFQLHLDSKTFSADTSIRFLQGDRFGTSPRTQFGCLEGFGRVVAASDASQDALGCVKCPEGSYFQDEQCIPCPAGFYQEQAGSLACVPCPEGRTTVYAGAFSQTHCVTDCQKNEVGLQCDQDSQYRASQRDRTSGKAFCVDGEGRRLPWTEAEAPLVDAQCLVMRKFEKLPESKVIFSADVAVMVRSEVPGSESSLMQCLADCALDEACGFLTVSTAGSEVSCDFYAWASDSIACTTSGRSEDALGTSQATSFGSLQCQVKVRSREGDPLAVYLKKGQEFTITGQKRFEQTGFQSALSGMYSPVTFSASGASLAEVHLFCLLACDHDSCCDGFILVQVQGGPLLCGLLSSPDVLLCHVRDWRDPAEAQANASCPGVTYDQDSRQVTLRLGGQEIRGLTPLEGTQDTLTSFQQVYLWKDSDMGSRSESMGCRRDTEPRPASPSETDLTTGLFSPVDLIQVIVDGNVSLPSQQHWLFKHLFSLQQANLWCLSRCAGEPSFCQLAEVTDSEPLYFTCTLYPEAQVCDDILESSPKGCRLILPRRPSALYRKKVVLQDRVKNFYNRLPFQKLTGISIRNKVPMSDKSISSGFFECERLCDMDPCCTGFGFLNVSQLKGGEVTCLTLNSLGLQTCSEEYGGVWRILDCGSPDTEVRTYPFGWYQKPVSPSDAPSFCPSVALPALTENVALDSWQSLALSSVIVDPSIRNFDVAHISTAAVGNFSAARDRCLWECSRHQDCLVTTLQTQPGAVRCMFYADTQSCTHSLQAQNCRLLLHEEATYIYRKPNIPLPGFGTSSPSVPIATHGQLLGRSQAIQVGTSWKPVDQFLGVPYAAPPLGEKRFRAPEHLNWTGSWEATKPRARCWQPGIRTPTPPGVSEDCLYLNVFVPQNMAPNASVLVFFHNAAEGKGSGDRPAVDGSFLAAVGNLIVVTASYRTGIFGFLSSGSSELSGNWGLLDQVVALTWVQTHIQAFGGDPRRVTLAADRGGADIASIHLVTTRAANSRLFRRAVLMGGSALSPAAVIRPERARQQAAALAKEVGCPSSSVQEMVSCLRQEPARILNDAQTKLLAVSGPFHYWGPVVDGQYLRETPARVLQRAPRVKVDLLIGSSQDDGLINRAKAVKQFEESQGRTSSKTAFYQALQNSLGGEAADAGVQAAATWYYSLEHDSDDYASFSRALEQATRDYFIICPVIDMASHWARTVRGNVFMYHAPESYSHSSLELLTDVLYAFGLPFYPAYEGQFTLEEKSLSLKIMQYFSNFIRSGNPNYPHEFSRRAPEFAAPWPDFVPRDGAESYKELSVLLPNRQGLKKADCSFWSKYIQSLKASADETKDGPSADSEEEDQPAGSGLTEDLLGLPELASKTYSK
Rhesus-D antigen (human), sequence (Q02161 2-417): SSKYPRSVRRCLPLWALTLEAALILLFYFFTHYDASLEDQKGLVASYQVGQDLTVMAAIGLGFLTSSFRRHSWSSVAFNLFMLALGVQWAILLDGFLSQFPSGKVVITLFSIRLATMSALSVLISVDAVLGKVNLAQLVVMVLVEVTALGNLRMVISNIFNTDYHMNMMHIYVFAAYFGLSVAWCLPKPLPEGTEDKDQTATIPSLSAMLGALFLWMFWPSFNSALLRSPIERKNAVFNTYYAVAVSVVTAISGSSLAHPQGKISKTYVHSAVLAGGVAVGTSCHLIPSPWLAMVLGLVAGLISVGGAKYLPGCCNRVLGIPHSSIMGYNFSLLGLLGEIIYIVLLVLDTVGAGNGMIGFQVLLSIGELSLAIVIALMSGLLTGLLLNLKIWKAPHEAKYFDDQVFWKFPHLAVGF

In the case of “Fog-B Fab fragment displayed on the surface of phage (pHEN1)”, the titre of phage eluted after selection on Rh-D positive cells [1] is reported as 6e+06.

“phage control (vector pCAT3) (from UniProt P03661 19-424)” showed an ELISA OD [2] of 0.07 O.D.

B1: Lysozyme binder VH14.1 / VL14.1 (scFv, V domains shown)
VH: QVQLQESGPGLVKPSETLSLVCTVSGGSLSFSYWGWIRQPPGKGLEWIGYISHRGTDYNSSLQSRVTISADTSKNQFSLKLSSVTAADTAVYYCARSFSNSFFFGYWGQGT
VL: SSELTQDPAVSVAFGQTVRITCQGDSLRSSYASWYQQKPGQAPLLVIYGENSRPSGIPDRFSGSSSGNTASLTITGAQAEDEADYYCNSRDSRGTHLEVFGG
notes: Human scFv in pHEN1 on phage; Paired by common number
B1: binds [3].
